We go through eight sequences from the DeepSol protein solubility set.

The nature of this series: soluble on expression in E. coli; label from the status in PepcDB or PDB records.
For “MAHHHHHHMSLNAAAAADERSRKEMDRFQVERMAGQGTFGTVQLGKEKSTGMSVAIKKVIQDPRFRNRELQIMQDLAVLHHPNIVQLQSYFYTLGERDRRDIYLNVVMEYVPDTLHRCCRNYYRRQVAPPPILIKVFLFQLIRSIGCLHLPSVNVCHRDIKPHNVLVNEADGTLKLCDFGSAKKLSPSEPNVAYICSRYYRAPELIFGNQHYTTAVDIWSVGCIFAEMMLGEPIFRGDNSAGQLHEIVRVLGCPSREVLRKLNPSHTDVDLYNSKGIPWSNVFSDHSLKDAKEAYDLLSALLQYLPEERMKPYEALCHPYFDELHDPATKLPNNKDLPEDLFRFLPNEIEVMSEAQKAKLVRK”, the “soluble on expression in E. coli” value was “soluble”. The value for “MSLGDKKIRIRRTNEQLDKEVISEFEKLVGEFGFGNVNLSALMKAADLEANVFYRRYGSMDNLYDRLAKQYDFWINNTIDISTLNTLGPKKFFAETFKTLFRNLSENSVMQKLLLYEMTTINSTTKRSAETRDVMNLNLITFYENLFAPAKINIKSIASILIGGIYYLILHKECAKICTIDYKTKEGENAFSEGIDFLTDIIFDRLEMYDRDKKAIRQMISDGISESKICKYMGINKNDLKTLLSEGHHHHHH” was “soluble”; that for “EGDPENGEKLQITIRRGKDGFGFTICCDSPVRVQAVDSGGPAERAGLQQLDTVLQLNERPVEHWKCVELAHEIRSCPSEIILLVWRV” was “soluble”; that for “MDSPAWMFTKALSHRQKVTRLYKRCLREVDNWYGGNNLEVRFQKCIIRARFDANADEVDTRKSQILLADGCRQLWEKRHFKPFRFALDPGGSSYDRERESPDEIVDSDQWTLAEREQFPYYFNTREQRKKELLTHWAKIEKAWDEEIASIQTQLPAAAPTVSK” was “not soluble”. The value for “MGSDKIHHHHHHMKLAVISSIYKNDSLSKIKQSLQSLLNQENVTCDIYLYCDGPVSIDIVHFLDSFDQNSLYIFKQEQNRGLAHALNELLNIVLTKEYEYIARMDADDISMPERFVKQIAFMNSHPDIDCLGTWAIEIDDDGKEYFRKKMPITHEECLELFKKRDCMIHPTVMFRRSYFEKAGLYPEDTYFGEDTMMWAKGFKSGCKFANVPEYLFKFRLDSNFFERRRGWKHAKSIYTLRHRVNRMLGFGWKEDCYALLYAMAKLMPKSILDIIYKTVR” was “not soluble”. The value for “PSSNGPLEGTRGKLKNKPRDRGTSPPQRAVEEFDDGEKVHLKIDPSVPNGRFHPRFDGQTGTVEGKQGDAYKVDIVDGGKEKTIIVTAAHLRRQE” was “soluble”; that for “MGNCLSTSDPSHEDVSKKLPKALPVDAAFKFPSPLPTFTRGDGFAKGTIDLGGGLEVSQVSTFNKVWSTYEGGPDNLGATFFEPSSIPSGFSILGYYAQPNNRNLFGWVLTARDLSSNTLKPPVDYTLVGNTESLKIKQDGTGYFWQPVPPDGYQAVGLIVTNYSQKPPLDKLRCIRSDLTEQCEADTWIWGTNGVNISNLKPTTRGTQATGVYVGTFTWQTQNSSPPSLSCLKNTKLDFSTMPNGSQIEELFQTFSPCIYFHPDEEYLPSSVTWYFNNGALLYKKGEESKPIPIESNGSNLPQGGSNDGSYWLDLPIDKNGKERVKKGDLQSTKVYLHIKPMLGATFTDISIWIFYPFNGPAKAKVKFVNLPLGRIGEHIGDWEHTTLRISNFTGELWRVFLSQHSGGIWIDACDLEFQDGGNNKFVAYASLHGHAMYPKPGLVLQGDDGVGIRNDTGKGKKVLDTGLGYEVIAAEYDGGGVVEPPWVKYFRKWGPKIDYNVDDEVKSVERILPGLLKKAFVKFVKKIPDEVYGEDGPTGPKLKSNWAGDES” was “not soluble”.

For the sequence “MLIGMSNQTVNQAVSSGVKASPHRFNRFEIKYLITEQDVPALREQLATRMSTDPLSPPGGYRVESLYFDSADLRCYTEKIEGLKFRRKLRIRTYGDGVLTPESTVSVEIKQRVNKVTQKRRLDLPFIYALALGDSTGAAVGEQVDVEKLLEISPENQHALIHEMASFAKNYRLRPIATTKYHREAFVGADAEESSRVTIDHGVSGRDRDFLLGQDLEDRPTVAQGLAVVEIKCDERVPFWLTDMTAQLEMSVIRMSKYCETIEAFHNRPASAFGAVDPIFLEHHHHHH”, the “soluble on expression in E. coli” value was “soluble”.
